B1: Thyroid receptor-interacting protein 6 (Homo sapiens), Q15654 (parent)
chain: MSGPTWLPPKQPEPARAPQGRAIPRGTPGPPPAHGAALQPHPRVNFCPLPSEQCYQAPGGPEDRGPAWVGSHGVLQHTQGLPADRGGLRPGSLDAEIDLLSSTLAELNGGRGHASRRPDRQAYEPPPPPAYRTGSLKPNPASPLPASPYGGPTPASYTTASTPAGPAFPVQVKVAQPVRGCGPPRRGASQASGPLPGPHFPLPGRGEVWGPGYRSQREPGPGAKEEAAGVSGPAGRGRGGEHGPQVPLSQPPEDELDRLTKKLVHDMNHPPSGEYFGQCGGCGEDVVGDGAGVVALDRVFHVGCFVCSTCRAQLRGQHFYAVERRAYCEGCYVATLEKCATCSQPILDRILRAMGKAYHPGCFTCVVCHRGLDGIPFTVDATSQIHCIEDFHRKFAPRCSVCGGAIMPEPGQEETVRIVALDRSFHIGCYKCEECGLLLSSEGECQGCYPLDGHILCKACSAWRIQELSATVTTDC

How the values were obtained:
Details in all cases: with scrib_human SCRIB
[1] = variants of: B1
[2] = variants of: B1; remark: listed apart in the source
[3] = variants of: B1; remark: listed apart in the source
[4] = variants of: B1; remark: listed apart in the source

Variant | effect of a mutation on the interaction [1] | effect of a mutation on the interaction [2] | effect of a mutation on the interaction [3] | effect of a mutation on the interaction [4]
MSGPTWLPPKQPEPARAPQGRAIPRGTPGPPPAHGAALQPHPRVNFCPLPSEQCYQAPGGPEDRGPAWVGSHGVLQHTQGLPADRGGLRPGSLDAEIDLLSSTLAELNGGRGHASRRPDRQAYEPPPPPAYRTGSLKPNPASPLPASPYGGPTPASYTTASTPAGPAFPVQVKVAQPVRGCGPPRRGASQASGPLPGPHFPLPGRGEVWGPGYRSQREPGPGAKEEAAGVSGPAGRGRGGEHGPQVPLSQPPEDELDRLTKKLVHDMNHPPSGEYFGQCGGCGEDVVGDGAGVVALDRVFHVGCFVCSTCRAQLRGQHFYAVERRAYCEGCYVATLEKCATCSQPILDRILRAMGKAYHPGCFTCVVCHRGLDGIPFTVDATSQIHCIEDFHRKFAPRCSVCGGAIMPEPGQEETVRIVALDRSFHIGCYKCEECGLLLSSEGECQGCYPLDGHILCKACSAWRIQELSATVTTDA [C476A] | disrupting interaction | decreasing interaction | – | –
MSGPTWLPPKQPEPARAPQGRAIPRGTPGPPPAHGAALQPHPRVNFCPLPSEQCYQAPGGPEDRGPAWVGSHGVLQHTQGLPADRGGLRPGSLDAEIDLLSSTLAELNGGRGHASRRPDRQAYEPPPPPAYRTGSLKPNPASPLPASPYGGPTPASYTTASTPAGPAFPVQVKVAQPVRGCGPPRRGASQASGPLPGPHFPLPGRGEVWGPGYRSQREPGPGAKEEAAGVSGPAGRGRGGEHGPQVPLSQPPEDELDRLTKKLVHDMNHPPSGEYFGQCGGCGEDVVGDGAGVVALDRVFHVGCFVCSTCRAQLRGQHFYAVERRAYCEGCYVATLEKCATCSQPILDRILRAMGKAYHPGCFTCVVCHRGLDGIPFTVDATSQIHCIEDFHRKFAPRCSVCGGAIMPEPGQEETVRIVALDRSFHIGCYKCEECGLLLSSEGECQGCYPLDGHILCKACSAWRIQELSATVTADC [T474A] | – | – | disrupting interaction | decreasing interaction

Source: IntAct's records for PubMed 16137684
